Test results reported in patent US20190142971A1, “FORMULATION AND DELIVERY OF MODIFIED NUCLEOSIDE, NUCLEOTIDE, AND NUCLEIC ACID COMPOSITIONS” (ModernaTX, Inc., priority 2013, published 2019).

How the values were obtained:
Format in all cases: in vivo
rats = test: Example 17: LNP IV, IM, SC in rats, serum EPO/G-CSF ELISA (Table 34); details: for EPO / G-CSF Serum Concentration: LNP 0.05 mg/kg
Experimental: Formulations, listed in Table 33, were characterized by particle size, zeta potential, and encapsulation.
LNP formulations, shown in Table 33 (above), were administered to rats (n=5) intravenously (IV), intramuscularly (IM) or subcutaneously (SC) at a single modified mRNA dose of 0.05 mg/kg. A control group of rats (n=4) was untreated. […] The rats administered EPO modified mRNA intravenously were also bled at 7 days.

Sprague-Dawley rats = test: Example 35: duration after IM EPO mRNA in rats, serum EPO (Table 61); details: rats IM 100 μg;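 further: serum concentration in pg/mL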
Experimental: The rats were bled 2, 6, 12, 24, 48 and 72 hours after the intramuscular injection to determine the concentration of human EPO in serum at a given time.

[1] = test system: non-human primates (cynomolgus monkey); test: Example 22: NHP serum chemistry ALT and AST (Tables 45, 46)
[2] = 0.005 mg/kg, 2 days, Female NHP
[3] = 0.005 mg/kg, 4 days, Female NHP
[4] = 0.005 mg/kg, 7 days, Female NHP
[5] = 0.005 mg/kg, 14 days, Female NHP
[6] = 0.005 mg/kg, Pre-dose, Female NHP
[7] = 0.005 mg/kg, Pre-dose, Male NHP
[8] = 0.05 mg/kg, 14 days, Female NHP

B1: EPO: modified mRNA encoding human erythropoietin, SEQ ID NO: 7, Cap1, fully modified with 5-methylcytosine and pseudouridine; LNP NPA-060-1 in Examples 17-22 (nucleic acid)
chain: GGGAAAUAAGAGAGAAAAGAAGAGUAAGAAGAAAUAUAAGAGCCACCAUGGGAGUGCACGAGUGUCCCGCGUGGUUGUGGUUGCUGCUGUCGCUCUUGAGCCUCCCACUGGGACUGCCUGUGCUGGGGGCACCACCCAGAUUGAUCUGCGACUCACGGGUACUUGAGAGGUACCUUCUUGAAGCCAAAGAAGCCGAAAACAUCACAACCGGAUGCGCCGAGCACUGCUCCCUCAAUGAGAACAUUACUGUACCGGAUACAAAGGUCAAUUUCUAUGCAUGGAAGAGAAUGGAAGUAGGACAGCAGGCCGUCGAAGUGUGGCAGGGGCUCGCGCUUUUGUCGGAGGCGGUGUUGCGGGGUCAGGCCCUCCUCGUCAACUCAUCACAGCCGUGGGAGCCCCUCCAACUUCAUGUCGAUAAAGCGGUGUCGGGGCUCCGCAGCUUGACGACGUUGCUUCGGGCUCUGGGCGCACAAAAGGAGGCUAUUUCGCCGCCUGACGCGGCCUCCGCGGCACCCCUCCGAACGAUCACCGCGGACACGUUUAGGAAGCUUUUUAGAGUGUACAGCAAUUUCCUCCGCGGAAAGCUGAAAUUGUAUACUGGUGAAGCGUGUAGGACAGGGGAUCGCUGAUAAGCUGCCUUCUGCGGGGCUUGCCUUCUGGCCAUGCCCUUCUUCUCUCCCUUGCACCUGUACCUCUUGGUCUUUGAAUAAAGCCUGAGUAGGAAG
modifications: Cap1, 5-methylcytosine, pseudouridine
protein expression detectable out to (rats; IV): 5 days | EPO / G-CSF Serum Concentration (rats; IM, 2 hours): 1395.4 pg/mL | EPO / G-CSF Serum Concentration (rats; IM, 8 hours): 8974.6 pg/mL | EPO / G-CSF Serum Concentration (rats; IM, 24 hours): 4678.3 pg/mL | EPO / G-CSF Serum Concentration (rats; IV, 2 hours): 36,981.0 pg/ml | EPO / G-CSF Serum Concentration (rats; IV, 8 hours): 62,053.3 pg/ml | EPO / G-CSF Serum Concentration (rats; IV, 24 hours): 42,077.0 pg/ml | EPO / G-CSF Serum Concentration (rats; IV, 48 hours): 5,561.5 pg/ml | EPO / G-CSF Serum Concentration (rats; IV, 5 days): 0.0 pg/mL | EPO / G-CSF Serum Concentration (rats; IV, 7 days): 0.0 pg/mL | EPO / G-CSF Serum Concentration (rats; SC, 2 hours): 386.2 pg/mL | EPO / G-CSF Serum Concentration (rats; SC, 8 hours): 985.6 pg/mL | EPO / G-CSF Serum Concentration (rats; SC, 24 hours): 544.2 pg/mL | protein expression detectable to (rats; subcutaneous and intramuscular): at least 24 hours | human EPO in serum, Avg. (Sprague-Dawley rats; 2 hour): 59.6 pg/mL | human EPO in serum, Geometric-mean (Sprague-Dawley rats; 2 hour): 58.2 pg/mL | human EPO in serum, Avg. (Sprague-Dawley rats; 6 hour): 68.6 pg/mL | human EPO in serum, Geometric-mean (Sprague-Dawley rats; 6 hour): 55.8 pg/mL | human EPO in serum, Avg. (Sprague-Dawley rats; 12 hour): 87.4 pg/mL | human EPO in serum, Geometric-mean (Sprague-Dawley rats; 12 hour): 84.5 pg/mL | human EPO in serum, Avg. (Sprague-Dawley rats; 24 hour): 108.6 pg/mL | human EPO in serum, Geometric-mean (Sprague-Dawley rats; 24 hour): 95.3 pg/mL | human EPO in serum, Avg. (Sprague-Dawley rats; 48 hour): 77.9 pg/mL | human EPO in serum, Geometric-mean (Sprague-Dawley rats; 48 hour): 77.0 pg/mL | human EPO in serum, Avg. (Sprague-Dawley rats; 72 hour): 80.1 pg/mL | human EPO in serum, Geometric-mean (Sprague-Dawley rats; 72 hour): 75.8 pg/mL | ALT [1, 2]: 48 U/L | AST [1, 2]: 25 U/L | ALT ([1]; 0.005 mg/kg, 2 days, Male NHP): 62 U/L | AST ([1]; 0.005 mg/kg, 2 days, Male NHP): 29 U/L | ALT [1, 3]: 50 U/L | AST [1, 3]: 55 U/L | ALT ([1]; 0.005 mg/kg, 4 days, Male NHP): 48 U/L | AST ([1]; 0.005 mg/kg, 4 days, Male NHP): 43 U/L | ALT [1, 4]: 48 U/L | AST [1, 4]: 31 U/L | ALT ([1]; 0.005 mg/kg, 7 days, Male NHP): 21 U/L | AST ([1]; 0.005 mg/kg, 7 days, Male NHP): 55 U/L | ALT [1, 5]: 51 U/L | AST [1, 5]: 54 U/L | ALT ([1]; 0.005 mg/kg, 14 days, Male NHP): 43 U/L | AST ([1]; 0.005 mg/kg, 14 days, Male NHP): 35 U/L | ALT [1, 6]: 45 U/L | AST [1, 6]: 40 U/L | ALT [1, 7]: 45 U/L | AST [1, 7]: 39 U/L | ALT ([1]; 0.05 mg/kg, 2 days, Female NHP): 254 U/L | AST ([1]; 0.05 mg/kg, 2 days, Female NHP): 80 U/L | ALT ([1]; 0.05 mg/kg, 2 days, Male NHP): 95 U/L | AST ([1]; 0.05 mg/kg, 2 days, Male NHP): 61 U/L | ALT ([1]; 0.05 mg/kg, 4 days, Female NHP): 200 U/L | AST ([1]; 0.05 mg/kg, 4 days, Female NHP): 94 U/L | ALT ([1]; 0.05 mg/kg, 4 days, Male NHP): 70 U/L | AST ([1]; 0.05 mg/kg, 4 days, Male NHP): 48 U/L | ALT ([1]; 0.05 mg/kg, 7 days, Female NHP): 187 U/L | AST ([1]; 0.05 mg/kg, 7 days, Female NHP): 78 U/L | ALT ([1]; 0.05 mg/kg, 7 days, Male NHP): 64 U/L | AST ([1]; 0.05 mg/kg, 7 days, Male NHP): 53 U/L | ALT [1, 8]: 216 U/L | AST [1, 8]: 47 U/L | ALT ([1]; 0.05 mg/kg, 14 days, Male NHP): 29 U/L
